One molecule from paper PMC4349574 (Developmental cell, 2013) can be followed below.

The assay has as its target T1, Ypp1 (residues 11–817), purified, GST tag removed (S. cerevisiae, UniProt P46951 11-817).
T1 sequence (looked up): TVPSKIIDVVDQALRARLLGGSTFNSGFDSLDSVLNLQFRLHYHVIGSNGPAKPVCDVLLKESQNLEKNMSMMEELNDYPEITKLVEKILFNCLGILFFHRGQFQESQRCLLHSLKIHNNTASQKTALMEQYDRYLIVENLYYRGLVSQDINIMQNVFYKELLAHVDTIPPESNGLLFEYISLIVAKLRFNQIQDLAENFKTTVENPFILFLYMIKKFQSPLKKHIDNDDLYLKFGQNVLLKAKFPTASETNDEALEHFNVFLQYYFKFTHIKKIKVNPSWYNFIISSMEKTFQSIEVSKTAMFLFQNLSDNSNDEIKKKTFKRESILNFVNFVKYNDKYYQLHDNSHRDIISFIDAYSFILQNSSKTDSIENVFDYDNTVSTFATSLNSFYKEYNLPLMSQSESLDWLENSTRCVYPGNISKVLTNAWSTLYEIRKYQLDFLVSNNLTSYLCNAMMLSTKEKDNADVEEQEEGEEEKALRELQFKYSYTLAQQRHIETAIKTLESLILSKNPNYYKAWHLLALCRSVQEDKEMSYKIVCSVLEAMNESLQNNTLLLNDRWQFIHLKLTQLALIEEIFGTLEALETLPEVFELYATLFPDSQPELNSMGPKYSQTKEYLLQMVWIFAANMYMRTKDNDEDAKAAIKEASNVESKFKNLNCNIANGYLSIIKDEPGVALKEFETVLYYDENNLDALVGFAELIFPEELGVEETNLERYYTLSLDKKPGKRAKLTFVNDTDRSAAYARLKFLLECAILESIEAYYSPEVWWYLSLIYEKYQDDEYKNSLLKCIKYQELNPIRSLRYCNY
Briefly: pull-down.

B1: GST-Efr3-C_(651–730) (domain or fragment, S. cerevisiae, UniProt Q03653 651-730, looked up)
chain: APKVSDLKKTMNEKNIPNNMKRDGSFRGSQSVKSRVTNITFLLNELKTFSDDANKIKDPDEENIVGLDKIDVARSNSLRL
For the molecule B1, the binding result was “binds”.
